# Assay results as given in the supplement of paper PMC7877785.
# ± gives the uncertainty stated by the source.
# Test: self-splicing fitness, log relative to wild type (ln ratio); higher = more splicing; Tetrahymena group I intron in knt gene, E. coli kanamycin selection, DiMSum; sequences stand for … in CUCUCU…GGAGGGAAAAGUUAUCAGGCAUGCACCUGGUAGCUAGUCUUUAAACCAAUAGAUUGCAUCGGUUUAAAAGGCAAGACCGUCAAAUUGCGGGAAAGGGGUCAACAGCCGUUCAGUACCAAGUCUCAGGGGAAACUUUGAGAUGGCCUUGCAAAGGGUAUGGUAAUAAGCUGACGGACAUGGUCCUAACCACGCAGCCAAGUCCUAAGUCAACAGAUCUUCUGUUGAUAUGGAUGCAGUUCACAGACUAAAUGUCGGUCGGGGAAGAUGUAUUCUUCUCAUAAGAUAUAGUCGGACCUCUCCUUAAUGGGAGCUAGCGGAUGAAGUGAUGCAACACUGGAGCCGCUGGGAACUAAUUUGUAUGCGAAAGUAUAUUGAUUAGUUUUGGAGUACUCGUGGUCG
# Outline: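 Library with all eight P1ex-region intron nucleotides randomised, intron inside the knt kanamycin-resistance gene on pET-22b(+), in E. coli BL21(DE3). Cells grew overnight at 37°C or 30°C on LB agar with or without 25 μg/mL kanamycin (plus 100 μg/mL carbenicillin, 50 μM IPTG, 0.2% rhamnose), in six replicate transformations. Pooled colonies were amplicon-sequenced on Illumina HiSeq 2500. DiMSum fitness is the error-weighted combination of wild-type-normalised replicate fold changes, kanamycin versus none.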
Sequence,self-splicing fitness (ln) (30 °C),self-splicing fitness (ln) (37 °C)
CCGAAGCAAUAUUACGAUGG,-3.47 ± 0.19,-3.7 ± 0.2
UAGUAGCAAUAUUACGAGCC,-2.98 ± 0.47,-2.31 ± 0.42
ACUCAGCAAUAUUACGUUUC,-2.88 ± 0.17,-2.33 ± 0.21
CAGGAGCAAUAUUACGGCCG,-0.398 ± 0.09,0.0497 ± 0.12
GCUCAGCAAUAUUACGACAG,-3.53 ± 0.21,-2.28 ± 0.22
GACUAGCAAUAUUACGGAGA,-3.49 ± 0.23,-2.04 ± 0.19
GUGAAGCAAUAUUACGGUUA,-0.24 ± 0.054,0.132 ± 0.086
UGAGAGCAAUAUUACGGCUA,-1.67 ± 0.25,-0.532 ± 0.35
AGGUAGCAAUAUUACGUACC,-1.99 ± 0.028,-1.14 ± 0.042
CAUUAGCAAUAUUACGUAAA,-2.93 ± 0.15,-1.34 ± 0.15
UACGAGCAAUAUUACGCUCA,-1.46 ± 0.15,-0.952 ± 0.2
UAAUAGCAAUAUUACGAUCU,-1.4 ± 0.098,-0.601 ± 0.12
CUGCAGCAAUAUUACGGAGG,-2.5 ± 0.13,-2.03 ± 0.21
GGCGAGCAAUAUUACGUCUA,-1.86 ± 0.19,-0.451 ± 0.15
UCCCAGCAAUAUUACGUCGA,-0.251 ± 0.071,0.317 ± 0.099
GAUUAGCAAUAUUACGCGUC,-4.09 ± 0.47,-2.01 ± 0.3
AUUCAGCAAUAUUACGGCCG,-1.09 ± 0.3,-0.945 ± 0.3
GACCAGCAAUAUUACGAUGC,-0.38 ± 0.059,-0.185 ± 0.072
AUGCAGCAAUAUUACGGACC,-1.52 ± 0.17,-0.744 ± 0.17
GCGAAGCAAUAUUACGAUCC,-1.64 ± 0.21,-1.76 ± 0.3
ACCUAGCAAUAUUACGGAAU,-1.96 ± 0.08,-1.19 ± 0.09
UAUUAGCAAUAUUACGACCA,-0.42 ± 0.18,-0.894 ± 0.19
GACCAGCAAUAUUACGGAUC,-1.45 ± 0.095,-0.489 ± 0.12
UGCAAGCAAUAUUACGUGAU,-3.33 ± 0.082,-2.13 ± 0.093
AAUAAGCAAUAUUACGCUCU,-0.422 ± 0.079,-0.115 ± 0.09
CAGCAGCAAUAUUACGCCAU,-3.12 ± 0.24,-1.78 ± 0.21

Sequence,self-splicing fitness (ln) (30 °C),self-splicing fitness (ln) (37 °C)
CGCCAGCAAUAUUACGCACC,-2.37 ± 0.17,-2.33 ± 0.35
CGUUAGCAAUAUUACGCGCU,-1.9 ± 0.2,-1.73 ± 0.17
GAUAAGCAAUAUUACGACAU,-0.4 ± 0.012,0.0172 ± 0.032
GAAAAGCAAUAUUACGUUAA,-2.85 ± 0.15,-1.78 ± 0.13
GGCUAGCAAUAUUACGUCUC,-0.325 ± 0.094,-0.0256 ± 0.11
AGUAAGCAAUAUUACGCCGU,-0.289 ± 0.17,-2.06 ± 0.31
GGAAAGCAAUAUUACGGUAG,-3.02 ± 0.2,-2.98 ± 0.18
CGUAAGCAAUAUUACGCGAG,-1.63 ± 0.2,-2.56 ± 0.44
CGGAAGCAAUAUUACGGCCA,0.0398 ± 0.097,0.672 ± 0.16
GGAAAGCAAUAUUACGGAUC,-0.0161 ± 0.075,0.0803 ± 0.09
ACAUAGCAAUAUUACGCGAU,-3.37 ± 0.21,-2.35 ± 0.25
GGUCAGCAAUAUUACGCAAU,-0.0569 ± 0.099,0.16 ± 0.12
CUUUAGCAAUAUUACGCCUU,-2.77 ± 0.31,-2.94 ± 0.43
UUCGAGCAAUAUUACGACCU,-1.7 ± 0.43,1.25 ± 0.38
GGGAAGCAAUAUUACGGAGC,-1.91 ± 0.21,-1.3 ± 0.21
ACAUAGCAAUAUUACGAUAU,-2.69 ± 0.15,-1.97 ± 0.14
UGUCAGCAAUAUUACGUGGG,-1.94 ± 0.073,-0.96 ± 0.082
GGUCAGCAAUAUUACGACCC,-2.52 ± 0.27,-2.43 ± 0.41
AAGUAGCAAUAUUACGGCGU,-0.422 ± 0.091,0.27 ± 0.11
CCAGAGCAAUAUUACGUCAU,-3.64 ± 0.28,-2.81 ± 0.18
AAACAGCAAUAUUACGGGAU,-2.65 ± 0.1,-1.69 ± 0.087
CGAGAGCAAUAUUACGGUUA,-3.13 ± 0.43,-2.79 ± 0.49
UACGAGCAAUAUUACGGACU,-2.36 ± 0.23,
GUACAGCAAUAUUACGAGAU,-3.53 ± 0.16,-2.03 ± 0.11
CAAUAGCAAUAUUACGCAUC,,-2.7 ± 0.35
CCCCAGCAAUAUUACGUUCU,-4.2 ± 0.27,-3.05 ± 0.17

Sequence,self-splicing fitness (ln) (30 °C),self-splicing fitness (ln) (37 °C)
UUCAAGCAAUAUUACGGCAU,-1.71 ± 0.065,-0.546 ± 0.075
CCCAAGCAAUAUUACGGCGU,-3.85 ± 0.19,-2.4 ± 0.13
UGCGAGCAAUAUUACGCGAU,-2.39 ± 0.42,
ACCCAGCAAUAUUACGAGAC,-2.34 ± 0.17,-1.89 ± 0.18
ACCGAGCAAUAUUACGGAGA,-1.34 ± 0.29,-1.48 ± 0.28
ACGAAGCAAUAUUACGGUCG,-0.954 ± 0.066,-0.311 ± 0.082
CCAGAGCAAUAUUACGUGCU,-3.37 ± 0.24,-3.56 ± 0.42
GUAAAGCAAUAUUACGUGUA,-1.44 ± 0.064,-0.702 ± 0.087
UGACAGCAAUAUUACGAGCA,-0.681 ± 0.051,0.236 ± 0.064
GAAGAGCAAUAUUACGUUGA,-3.21 ± 0.19,-2.63 ± 0.2
UGGAAGCAAUAUUACGCGUA,-1.21 ± 0.11,-0.131 ± 0.15
UGUAAGCAAUAUUACGCAGU,-2.92 ± 0.22,-2.22 ± 0.24
CGGAAGCAAUAUUACGCAGC,-3.56 ± 0.37,-1.49 ± 0.27
AGUUAGCAAUAUUACGAGUA,-2.73 ± 0.17,-1.64 ± 0.13
CCUUAGCAAUAUUACGUGAU,-3.66 ± 0.2,-2 ± 0.24
UAUGAGCAAUAUUACGGGUU,-4.04 ± 0.3,-2.41 ± 0.27
UGUCAGCAAUAUUACGAUGA,0.232 ± 0.075,0.333 ± 0.09
GUUCAGCAAUAUUACGGAUU,-0.537 ± 0.092,0.247 ± 0.14
UACUAGCAAUAUUACGCGCG,-0.375 ± 0.12,-0.0222 ± 0.12
CGGAAGCAAUAUUACGCUAG,-1.05 ± 0.091,-1.6 ± 0.19
UAAGAGCAAUAUUACGGAGU,-3.26 ± 0.23,-2.21 ± 0.25
GGAUAGCAAUAUUACGAUCU,-1.25 ± 0.4,-2.24 ± 0.43
UCUAAGCAAUAUUACGAUCA,-0.876 ± 0.21,-0.379 ± 0.14
GAAGAGCAAUAUUACGGUUG,-3.86 ± 0.35,-2.18 ± 0.38
CGACAGCAAUAUUACGCUUC,,-3.09 ± 0.43
